# Assay: protease stability score; higher = more stable; yeast display proteolysis, trypsin and chymotrypsin;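 note: log10 excess protease needed over predicted unfolded state with 0 meaning unfolded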
row,Sequence,protease stability score
1,DDEKKAKSFVDDLRKILKTGDPEQMRDNADKDARLVIGDQTFHGREDAASKLVTLVKRFDHARFNVKSMTMHNGRIDVDMTFTLRVDGKNERHRVKITVEEHNGRLKMKEVHWS,0.991
2,DEQEVREAAEVIVTGNEEQLRDNADPNVKLQVGDERYHGREHFVRMISKFQKQVDHRSVDHFHVKGDKVRINMVMHINGQHVVLQINAQIHNGRIKSMEIKVRDEKDKRILDQVEG,1.76
3,DEEIRDEIKKYFKALETGDPDKMREMFDPNAKVQVGDKVYHGMSEAARHWVRRAEKIRIEIQDLNIDVHGEDVVVEQVLVEDKNGRPQRKTERLTMDVEDGRVKRAHRHSVK,0.186
4,DEKVKELFKRLLRALHTGDEEQARRLVDPNARIQVGDQRYHGMDEALRQMLHNMQDIEVSQRYIEVDVSGDRVHYRAEVEKTHNGKPEREQYSATVHAHNGKVVQVEMHTDK,0.069
5,DEENKHAAERLMRAIQKGDPDDMVRNMDKDAKVNIGDQQFHGREEVAKQNRKDNKEMRYHQEVKSISVDGDKVTVEATAQFTYNGQPDTFKFSFRAHLHNGRIRHLDVHFDEQTKRDQES,0.101
6,DEEAQKRAEELIRILQTGDPDKLMEMFDKDAHATIGDQTVRGREDMRRRQKELKETMDVKLDITDVKVTGEKIDIRIKATFNYNGQPAEDTIVFIIQQHNGRVQRFEVRIDEDVLRQLKK,0.184
7,DEEAAKKMMETWMKAVQKGDEKTVQKVYKPNGRWVHIDEERQGVEVVVKMMQQVKKQGVEFQIRRAKVEGDRVQFVYDLRLGDKTATFTVELQAQGGRVQEVKAEVSEEAKEIVTKG,0.14
8,DEKMLQHMEDALRRNDEQRLVELVDEDVKIKIGDRDVHGSERAQKIAETRKERIDSQDFKSMDLSGNKVTVDRVVVVNGVKFRVVVIYELSNGRIKRIEVRVTDEENKRRLQKQLS,0.63
9,DEEKDEDVARQVAHAAATGDTKRLVELMRDNVRFQIGDKTFSGRENLSKAMERIDKHVDHLEVKSIEAHGDTVRADVTMTVNGKTHVVKIEAVVHNGHARELVLHDR,0.06
10,DEDRAKSFMQAVVDNDPDKILKMMDENVRIEYGNKEIHGHEDLRKFWDKLKDQVDHYQVDRYSIHNGTVNVDAQMVVNGVRVRFTIVAELRNGKVTSVKYRVTNPRQERQLDELWG,1.23
11,DEEDQKRKANNVAENLINGNEDEARKYIDKDARVHVGDKTYRGREEARKVWHELRKKVDHLRVEHIDVQGDKVDVQAFFRHNGNQTNIQVHIRMENGHVKSISVDNR,-0.216
12,DEEDVRRMENVVRENNEHRLAQLADKNARMTVGDQTYHGKEKIAEAIRRVQKQVDHMEIERLTIHGDKIRADVTMVVNGQRFRYVVVFNVKNGRLKERSVNFRDERDSEEFKKIEK,0.021
13,DKHLEDLARTLVHALRTGDPQMINHLFDENARVEVGNRRVHGREDANQRMKEINSQARMHVRLTSLRVDENRADLTVDASARVNGQPNTLRYQFWFHQHNGRITSMSARMSEHDVKQFES,-0.278
14,DERELSLFHRWLEVLNDGNEENLKQNMDPNAHANIGEKEIHGMEDFARHMITKVKELRIKIDDIKSSAHNGRLTASIDQQDNDNGKPDKYTNTFRAKFSNGQIQSQKVERDG,-0.31
15,DDEVKERVTQLLTAMLTNNPDKVQELIDPNAKVHVGDKRVQGEDDIKRVVEEENRQWRMRIKSVSVHVQGEKVRLDIEFVVHVNGEPQNDRVIMELTVHNGRVTDLQLQVDPRKLQERRN,0.966
16,DESKQKQFEHFLEVVKTGNEEDLRKNMDKDVRVQIGDKQVHGRENIASELVRRQKEIKLHIRDMRIDVHNGRVQASVDVVDNINGKPTRYSYRFEYNIENGKLKSARIHIDPDQVRKVEE,1.03
17,DEELAKIVLRLLQAEENGDERTLQENADPNVTINVGEKRIRGMETYAKEVTERRKRMRVEVDVKDYRNHGEHVVIVNTRLNESNGKPHRNRMQFVIHAHNGRITKISDNTDS,-0.009
18,DEEHVRRQAKQVNDILTTGDENKMLEMAPPDAKLEYGDRHVTGREHIRRMVHEQKKQIDDFKIDTYSVSGNEVRVRFVARVNGQEADFEITIVFKNGRIHEIKVDPDALQQMRK,0.256
19,DEERELEELMQRLISLMKNGNPKEVAKLLDPNVRVQYGDKRLHGREQAIRRIESLRRHVDHVTMSIESLQVEGDKVSARIEAVYDVNGTQDQRTIELELRQVNGKLRFKHITFK,0.017
20,EEDKAKEAKEIWDKNNERDLRKKADKDARADVGDKKVHGMETAVQMWSKVRQHVDHVQYHDLKIQGETIRIDFVLHWNGRTVRAQVEFKVSNGQLVDFKLKFTDPDQERKLHEMQK,0.123
21,DTHDEKHVAQNVVDALRRNDPDQLRRMMDPNVHFEVGDKTIHGREDAARQLKEIKKNVDHFQVDDVTMSNGRVHAIIRVEINGQERRNVVQADVKNGHVKFQRIKDQ,-0.084
22,DEELVKRLKKLLEALESGDEEKVHHMFDPNVRFQVGDKRFHGRERYASTVKREKDEMRNEVTSYRLTATGDKAEMSFRNILDENGSPHDDIQVMHVHVQGDKIKRASIQETR,0.071
23,DDTARQVYEDAADALRTGDEDEFRKQVDKDVRLTYGDKFIHGREEAARQLRDRQSTMRDEWDINEVQVRNGTINVDANKRNHENGQPQDVNLRVEVHAHNGKLTELRYTVQQ,-0.177
24,DDEANKTAHELVRILQTGDDESFEKMVDPNVKVVIGDRTFKGSSEVRDYLRKRKENIHEDLQVKHVSASGNKAHLDLRFRNDKNGRPQERRLELDVVFHNGKVKNVVYHWDG,1.39
25,DEDRMRKLLEQFLTALLQGDPEKMMELADEDVRMTYGDKEYHGREQVRDWAKDYRDKVDHASVHSYEVHGDKAQAIVVANVNGRTLSYTVVVRFQDGRAKHIKFESS,2.23

row,Sequence,protease stability score
1,DEEDANDMRHVWEVLDTGDEERFLQMVDPNVKVVIGDKEYHGRENLRKFLQDQKREMSERIKSIRVHDHNGRIKINAHATNQQNGQPHSFNIDAEAELHNGKITHLNVQTDG,2.17
2,DEHVIKNFLRVVRTNNEDSFVKMADKDAEITIGDKRYHGREDVHKAAKQRKDAFDEVSIVDYRIDGDKIKVRQSATVNGKKLDFEYTMVLHNGRVRTLDMKARDEEMERRLREIID,0.023
3,DEEIQKLIDDALKAYERGNEDQQAELFDENARVRIGDQTLHGREDLKEHLKRVKDHINFRIESYDVKVHNGRMHATLTLVMQIDGQPDQWSVHLRADVNNGRIKHFEMDMDPEKQRELTK,-0.044
4,DEDARKQAQRWITNLNNGNEKEVSKQFDPNARMDVGNRDVHGTEQLLQKLRTRLKQARQSIELRDIDRQGDNLQLDVRMEFVHNGQPDDVRFTVQMNYHNGKIKRANWRIPEEDQKKLER,0.165
5,DEDEQKVAKTFVEAVRQGDEKQIDDLADPNVRLRVGDKTLHGRDQLREHVRQMKEELKVEWSVQHVDFSDGRARIHAEMRVDVNGKPVTDDVTFFIEVKNGKVKNVEIHMDESVKREAEQ,0.548
6,DEKTLKELADHLIRAIETGNEHQFQKMADPNVKAQYGDSKVRGREDLAEYFKTLVDRADHIQFDHWDAQGNKVTMHFVLRVNGVDVRIVVFIHVTNGKIKHVRVHVTDPQEFRRMQG,0.515
7,DSNALSRAMEYLRVVEQGDPKRAKQLFDPNARFIYGDRTVHGKDRIADMLRHERDDMRLQIDDLKTTVQGDKVVVRYKAVRERNGHPETFRAEFRVEFNNGKIEQQNYQVHK,0.25
8,EERANDAARRFLEAIDRNNPDEAVKNFDPNARFRYGDKTVTGRTEVQELLEHLLKQMRITIQSVRVDARGDKVTVHLTVVVDVNGQPERHEMTVIANIHNGRIKEMEVRVDPDEQRERKR,0.575
9,DDTNVRKVKEYLKAVEHGDEETLRENVDENATVQVGDHSIHGMDNIAKKIKKDRDELRWEIKELEAEAHNGHVNVRVDARYEVNGNPIEDKFTMHFKFENGRVESVEIRVPEEFQKRVDR,0.165
10,DNEDAKRVVKLAEHNDFKKWAENADKDVRMKVGDKTWHGRSQFSTAVERLQKNIDHVDLRSVKTHNGRVTIKEQQEVDGRKTDVRFRLQVHNGHIKRVEVQVTDEEDKKTMEKLLS,-0.23
11,DEHAKHVVETYMTAQKHNNPKDAQKMVDPNARFSVGDKEVQGSEQLDKEIQRDNKEIREHVESMSVDVDGDKAHVDRTVKFQRNGKPHKLKVHLNFRLTNGRIKTVQVDEDG,-0.308
12,DEENVDRMEEIIRSGDFKELLELADPNVKVVVGDKEYSGRHVATTVLQSLYEQVDHHKVHSVQNEGETVEFDLKVVVNGQEMRMRFVIVFENGRIKTIQIEFTDPRQEEKFLKNIK,1.08
13,DQDHEQKMMTRVAHAFDNGDDQSLARLMDPNVSVTVGDKSVHGRERVRELVNEWRHRVDHIKLDRVEHQGNKAKFHITVEHNGERDQVDLEIEARNGKVKNVVLHRP,1.26
14,DDKDLKDVAEKVMHAVQNGDPHEARKMFDKDARIIVGDTEVHGRSNIMHLMTEFRKRVDHAEIKDLTVNGEDVRIDMVLDINGKKHRRTWEVRVSNGRARHAHLDPKDLERQSK,0.481
15,DEEKLRKMVETLIQAVQNGNLEKIRQMVKENVEFTLGDKTYKGQEDALKIVKHLQQVGAEAHVERQEITGDEAKVKTQWHVGDHTMEVEVVYYVRDDKVEKVEINWSEEAKKAIKAG,1.17
16,DEELLKIAKQFFEAEQNGDEDELKEQMDPNANLEYGDRTVHGRENIARWVSRVLREARIDFKEISVQDHNGRAKIHVRFVIDVNGRPNRMTRIVVVEQHNGRIKYLNIRMSEEQLKKLKE,0.132
17,DEDAQKTVRKFLENITTGNPENAEKLLDPNVHIHYGDKRVSGRDQFHREAKQKLHDMRLSIDIKEVQVQGNRIDVDVRFSVNHNGRPYTITAHLSIEMSNGHIEHMELRIDESDKRRQKR,-0.237
18,DEEQNRRIDDMWRAEENGDENRMKELADPNVELQIGDKQVHGMDEYVKEAKKRRDKSEISIEIKQVEVHNGSVHVDFVFTENENGTPDSKRVHVNARFDNGKLKSMSQNDTE,1.1
19,DEHAKKRLEEWLRNRQQGDDERLVQMADPNVRIEYGDKSFKGRDDVREWAQKESKSMDLQLKSVDLKVSGDKVDAKITFTQDENGKPDHATMNLVMKQDNGHIKVLRYEVTK,0.084
20,DEEELDNAKEMVKALLHGNPDRAKQLADPNAHYHVGDKKVHGNDNWAKLVRKERQELRVKIDRVDIKSKGNKVSVDIDVVHDHNGQPQKRNYRLHVEIHNGKVRNVKIQHDG,0.066
21,DENDAKELRHFIEVMVRGDPSKLMQLADKDASFHIGEKQVHGREQISSEAEQRNREIKYEIKDLKVTVHGDKARVEAEMVKNHNGKPEHYRYVVTASLRNGKIKEVTVNKRQ,0.875
22,DREEAKKIRKNWETNNWDHFAHQADENVRVRVGDKKYHGHHKLLEIMHQIEKRIDHARFDHIDLDGEKLTVDFQMVVNGKKVRYVMFIKVSNGRIKEVNIQFTSEEEERRAQEALR,0.732
23,DEENRHQINEMWKQIQTNNPDEVMKQLDKDVQVVVGDKQIRGREEFAKHVEQLLREMDVEYHSIKVKVHNGEAHVKVRHTVDVNGKPREDTLDVQLQMKNGHVKHFELRIDEDKLEKLKR,-0.169
24,DDERITELVTRFEKALQRGDNDEMERLMDPNARVRYGDKEYHGREDIKRALKEEKKRVDHFRLESVRWKNGHVEIFMKFTVNGRTEHRVFDIQLHNGRMKEMELTTS,1.15
25,DEHKEREIAERYAQNLTHGNPTEIARQFDPNVKMTVGDKELQGREQVEEALHNFRERVDHHSYDTFTVSNGRVNISAQANVDGKNVKVDVRVVVNNGRVKDVKINPEQWKHVQG,-0.234

# From the NTF2 design screens of Basanta et al. (2020)
